Test results published in IntAct's records for PubMed 29858488.

B1: Motile sperm domain-containing protein 2 (Homo sapiens), Q8NHP6 (parent)
chain: MAENHAQNKAKLISETRRRFEAEYVTDKSDKYDARDVERLQQDDNWVESYLSWRHNIVDETLKMLDESFQWRKEISVNDLNESSIPRWLLEIGVIYLHGYDKEGNKLFWIRVKYHVKDQKTILDKKKLIAFWLERYAKRENGKPVTVMFDLSETGINSIDMDFVRFIINCFKVYYPKYLSKIVIFDMPWLMNAAFKIVKTWLGPEAVSLLKFTSKNEVQDYVSVEYLPPHMGGTDPFKYSYPPLVDDDFQTPLCENGPITSEDETSSKEDIESDGKETLETISNEEQTPLLKKINPTESTSKAEENEKVDSKVKAFKKPLSVFKGPLLHISPAEELYFGSTESGEKKTLIVLTNVTKNIVAFKVRTTAPEKYRVKPSNSSCDPGASVDIVVSPHGGLTVSAQDRFLIMAAEMEQSSGTGPAELTQFWKEVPRNKVMEHRLRCHTVESSKPNTLTLKDNAFNMSDKTSEDICLQLSRLLESNRKLEDQVQRCIWFQQLLLSLTMLLLAFVTSFFYLLYS
partner: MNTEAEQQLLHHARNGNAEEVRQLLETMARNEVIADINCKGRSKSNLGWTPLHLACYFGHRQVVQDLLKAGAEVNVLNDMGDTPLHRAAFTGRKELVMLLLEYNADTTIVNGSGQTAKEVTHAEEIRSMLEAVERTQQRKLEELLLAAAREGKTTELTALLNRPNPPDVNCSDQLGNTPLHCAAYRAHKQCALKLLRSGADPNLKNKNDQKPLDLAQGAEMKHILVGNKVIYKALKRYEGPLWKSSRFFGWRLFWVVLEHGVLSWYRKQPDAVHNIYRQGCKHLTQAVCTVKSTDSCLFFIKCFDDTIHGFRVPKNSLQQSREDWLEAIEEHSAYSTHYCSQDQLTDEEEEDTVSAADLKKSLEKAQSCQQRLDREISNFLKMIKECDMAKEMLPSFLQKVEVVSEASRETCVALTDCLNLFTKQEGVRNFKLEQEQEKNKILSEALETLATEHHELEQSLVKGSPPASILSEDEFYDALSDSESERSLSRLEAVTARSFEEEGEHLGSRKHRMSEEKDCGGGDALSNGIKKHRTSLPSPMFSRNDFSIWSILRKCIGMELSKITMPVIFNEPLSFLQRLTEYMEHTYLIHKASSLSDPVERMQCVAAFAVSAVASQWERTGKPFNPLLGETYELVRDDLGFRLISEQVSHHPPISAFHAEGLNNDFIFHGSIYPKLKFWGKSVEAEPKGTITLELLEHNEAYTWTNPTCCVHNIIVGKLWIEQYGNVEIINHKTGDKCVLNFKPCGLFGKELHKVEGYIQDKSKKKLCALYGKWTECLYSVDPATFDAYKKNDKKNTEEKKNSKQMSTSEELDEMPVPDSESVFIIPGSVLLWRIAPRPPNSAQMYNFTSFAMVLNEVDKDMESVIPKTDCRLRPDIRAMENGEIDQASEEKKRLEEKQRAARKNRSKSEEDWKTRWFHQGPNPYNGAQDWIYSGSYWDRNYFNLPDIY
B2: Vesicle-associated membrane protein-associated protein A (Homo sapiens), Q9P0L0 (parent)
chain: MASASGAMAKHEQILVLDPPTDLKFKGPFTDVVTTNLKLRNPSDRKVCFKVKTTAPRRYCVRPNSGIIDPGSTVTVSVMLQPFDYDPNEKSKHKFMVQTIFAPPNTSDMEAVWKEAKPDELMDSKLRCVFEMPNENDKLNDMEPSKAVPLNASKQDGPMPKPHSVSLNDTETRKLMEECKRLQGEMMKLSEENRHLRDEGLRLRKVAHSDKPGSTSTASFRDNVTSPLPSLLVVIAAIFIGFFLGKFIL
partner: B1 partner
B3: Motile sperm domain-containing protein 2 (Homo sapiens), Q8NHP6 (parent)
chain: B1 chain
partner: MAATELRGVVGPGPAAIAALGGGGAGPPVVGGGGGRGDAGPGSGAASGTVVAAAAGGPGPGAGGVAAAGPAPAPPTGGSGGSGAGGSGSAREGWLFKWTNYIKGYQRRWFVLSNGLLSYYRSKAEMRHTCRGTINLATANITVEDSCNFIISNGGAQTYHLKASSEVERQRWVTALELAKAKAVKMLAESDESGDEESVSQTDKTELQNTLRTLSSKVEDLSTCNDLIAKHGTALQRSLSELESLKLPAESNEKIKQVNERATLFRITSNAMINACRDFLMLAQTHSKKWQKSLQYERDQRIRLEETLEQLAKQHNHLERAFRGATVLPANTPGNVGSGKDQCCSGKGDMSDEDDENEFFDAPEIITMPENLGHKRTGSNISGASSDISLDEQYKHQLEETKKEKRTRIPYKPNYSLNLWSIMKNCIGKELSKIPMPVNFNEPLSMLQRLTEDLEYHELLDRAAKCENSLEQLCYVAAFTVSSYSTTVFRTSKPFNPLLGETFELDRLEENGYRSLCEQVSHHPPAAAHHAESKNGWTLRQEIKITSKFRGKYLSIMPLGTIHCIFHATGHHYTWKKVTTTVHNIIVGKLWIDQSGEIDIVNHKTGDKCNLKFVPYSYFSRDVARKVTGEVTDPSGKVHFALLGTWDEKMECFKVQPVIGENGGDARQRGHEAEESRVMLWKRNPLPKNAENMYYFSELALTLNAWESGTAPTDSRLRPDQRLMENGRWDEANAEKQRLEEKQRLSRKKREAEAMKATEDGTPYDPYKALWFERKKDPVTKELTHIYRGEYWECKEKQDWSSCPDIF
B4: StAR-related lipid transfer protein 3 (Homo sapiens), Q14849 (parent)
chain: MSKLPRELTRDLERSLPAVASLGSSLSHSQSLSSHLLPPPEKRRAISDVRRTFCLFVTFDLLFISLLWIIELNTNTGIRKNLEQEIIQYNFKTSFFDIFVLAFFRFSGLLLGYAVLRLRHWWVIAVTTLVSSAFLIVKVILSELLSKGAFGYLLPIVSFVLAWLETWFLDFKVLPQEAEEERWYLAAQVAVARGPLLFSGALSEGQFYSPPESFAGSDNESDEEVAGKKSFSAQEREYIRQGKEATAVVDQILAQEENWKFEKNNEYGDTVYTIEVPFHGKTFILKTFLPCPAELVYQEVILQPERMVLWNKTVTACQILQRVEDNTLISYDVSAGAAGGVVSPRDFVNVRRIERRRDRYLSSGIATSHSAKPPTHKYVRGENGPGGFIVLKSASNPRVCTFVWILNTDLKGRLPRYLIHQSLAATMFEFAFHLRQRISELGARA
partner: B1 chain
B5: Motile sperm domain-containing protein 2 (Homo sapiens), Q8NHP6 (parent)
chain: B1 chain
partner: B4 chain

Variants of: B1
Conditions: with osbl1_human OSBPL1A

For MAENHAQNKAKLISETRRRFEAEYVTDKSDKYDARDVERLQQDDNWVESYLSWRHNIVDETLKMLDESFQWRKEISVNDLNESSIPRWLLEIGVIYLHGYDKEGNKLFWIRVKYHVKDQKTILDKKKLIAFWLERYAKRENGKPVTVMFDLSETGINSIDMDFVRFIINCFKVYYPKYLSKIVIFDMPWLMNAAFKIVKTWLGPEAVSLLKFTSKNEVQDYVSVEYLPPHMGGTDPFKYSYPPLVDDDFQTPLCENGPITSEDETSSKEDIESDGKETLETISNEEQTPLLKKINPTESTSKAEENEKVDSKVKAFKKPLSVFKGPLLHISPAEELYFGSTESGEKKTLIVLTNVTKNIVAFKVRTTAPEKYRVKPSNSSCDPGASVDIVVSPHGGLTVSAQDDFDIMAAEMEQSSGTGPAELTQFWKEVPRNKVMEHRLRCHTVESSKPNTLTLKDNAFNMSDKTSEDICLQLSRLLESNRKLEDQVQRCIWFQQLLLSLTMLLLAFVTSFFYLLYS [R404D;L406D], which “effect of a mutation on the interaction” value is on record?
Its value is “disrupting interaction strength”.

Variants of: B2
Conditions: with osbl1_human OSBPL1A

Which “effect of a mutation on the interaction” value does the source give for MASASGAMAKHEQILVLDPPTDLKFKGPFTDVVTTNLKLRNPSDRKVCFKVKTTAPRRYCVRPNSGIIDPGSTVTVSVMLQPFDYDPNEKSKHDFDVQTIFAPPNTSDMEAVWKEAKPDELMDSKLRCVFEMPNENDKLNDMEPSKAVPLNASKQDGPMPKPHSVSLNDTETRKLMEECKRLQGEMMKLSEENRHLRDEGLRLRKVAHSDKPGSTSTASFRDNVTSPLPSLLVVIAAIFIGFFLGKFIL [K94D;M96D] here?
Its value is “disrupting interaction strength”.

Variants of: B3
Conditions: with osbp1_human OSBP

MAENHAQNKAKLISETRRRFEAEYVTDKSDKYDARDVERLQQDDNWVESYLSWRHNIVDETLKMLDESFQWRKEISVNDLNESSIPRWLLEIGVIYLHGYDKEGNKLFWIRVKYHVKDQKTILDKKKLIAFWLERYAKRENGKPVTVMFDLSETGINSIDMDFVRFIINCFKVYYPKYLSKIVIFDMPWLMNAAFKIVKTWLGPEAVSLLKFTSKNEVQDYVSVEYLPPHMGGTDPFKYSYPPLVDDDFQTPLCENGPITSEDETSSKEDIESDGKETLETISNEEQTPLLKKINPTESTSKAEENEKVDSKVKAFKKPLSVFKGPLLHISPAEELYFGSTESGEKKTLIVLTNVTKNIVAFKVRTTAPEKYRVKPSNSSCDPGASVDIVVSPHGGLTVSAQDDFDIMAAEMEQSSGTGPAELTQFWKEVPRNKVMEHRLRCHTVESSKPNTLTLKDNAFNMSDKTSEDICLQLSRLLESNRKLEDQVQRCIWFQQLLLSLTMLLLAFVTSFFYLLYS [R404D;L406D] was tested. Which “effect of a mutation on the interaction” value did it give?
Its value is “disrupting interaction strength”.

Variants of: B4
Conditions: with mspd2_human MOSPD2, Q8NHP6

For MSKLPRELTRDLERSLPAVASLGSSLSHSQSLSSHLLPPPEKRRAISDVRRTFCLFVTFDLLFISLLWIIELNTNTGIRKNLEQEIIQYNFKTSFFDIFVLAFFRFSGLLLGYAVLRLRHWWVIAVTTLVSSAFLIVKVILSELLSKGAFGYLLPIVSFVLAWLETWFLDFKVLPQEAEEERWYLAAQVAVARGPLLFSGALSEGQAASPPESFAGSDNESDEEVAGKKSFSAQEREYIRQGKEATAVVDQILAQEENWKFEKNNEYGDTVYTIEVPFHGKTFILKTFLPCPAELVYQEVILQPERMVLWNKTVTACQILQRVEDNTLISYDVSAGAAGGVVSPRDFVNVRRIERRRDRYLSSGIATSHSAKPPTHKYVRGENGPGGFIVLKSASNPRVCTFVWILNTDLKGRLPRYLIHQSLAATMFEFAFHLRQRISELGARA [F207A;Y208A], which “effect of a mutation on the interaction” value is on record?
The value was “disrupting interaction strength”.

Variants of: B5
Conditions: with star3_human STARD3, Q14849

Which “effect of a mutation on the interaction” value does the source give for MAENHAQNKAKLISETRRRFEAEYVTDKSDKYDARDVERLQQDDNWVESYLSWRHNIVDETLKMLDESFQWRKEISVNDLNESSIPRWLLEIGVIYLHGYDKEGNKLFWIRVKYHVKDQKTILDKKKLIAFWLERYAKRENGKPVTVMFDLSETGINSIDMDFVRFIINCFKVYYPKYLSKIVIFDMPWLMNAAFKIVKTWLGPEAVSLLKFTSKNEVQDYVSVEYLPPHMGGTDPFKYSYPPLVDDDFQTPLCENGPITSEDETSSKEDIESDGKETLETISNEEQTPLLKKINPTESTSKAEENEKVDSKVKAFKKPLSVFKGPLLHISPAEELYFGSTESGEKKTLIVLTNVTKNIVAFKVRTTAPEKYRVKPSNSSCDPGASVDIVVSPHGGLTVSAQDDFDIMAAEMEQSSGTGPAELTQFWKEVPRNKVMEHRLRCHTVESSKPNTLTLKDNAFNMSDKTSEDICLQLSRLLESNRKLEDQVQRCIWFQQLLLSLTMLLLAFVTSFFYLLYS [R404D;L406D] here?
The value was “disrupting interaction strength”.
